Results taken from US20250115667A1.

Columns and labels:
[1] = molecular target: Programmed cell death protein 1 (PD1), human (human) (UniProt Q15116); experiment: cell-based or functional assay
[2] = molecular target: Cytotoxic T-lymphocyte-associated protein 4 (CTLA4), human (human) (UniProt P16410); experiment: cell-based or functional assay

In the case of XmAb20717 (bispecific antibody), the IL-2 secretion from SEB-stimulated human PBMC (ELISA), fold increase versus a mixture of XENP20111 and XENP20059 [1] is reported as 1.6 fold and the IL-2 secretion from SEB-stimulated human PBMC (ELISA), fold increase versus a mixture of XENP20111 and XENP20059 [2] is reported as 1.6 fold.
